Assay results: PMC3391258 (PLoS ONE, 2012)

T1: TolC with a hexahistidine-tag at the C-terminus (E. coli, UniProt P02930 23-493)
T1 construct: also called TolC-His; hexa-His-tagged wild-type TolC; not shown: His6, C-terminal, kept
T1 sequence (looked up): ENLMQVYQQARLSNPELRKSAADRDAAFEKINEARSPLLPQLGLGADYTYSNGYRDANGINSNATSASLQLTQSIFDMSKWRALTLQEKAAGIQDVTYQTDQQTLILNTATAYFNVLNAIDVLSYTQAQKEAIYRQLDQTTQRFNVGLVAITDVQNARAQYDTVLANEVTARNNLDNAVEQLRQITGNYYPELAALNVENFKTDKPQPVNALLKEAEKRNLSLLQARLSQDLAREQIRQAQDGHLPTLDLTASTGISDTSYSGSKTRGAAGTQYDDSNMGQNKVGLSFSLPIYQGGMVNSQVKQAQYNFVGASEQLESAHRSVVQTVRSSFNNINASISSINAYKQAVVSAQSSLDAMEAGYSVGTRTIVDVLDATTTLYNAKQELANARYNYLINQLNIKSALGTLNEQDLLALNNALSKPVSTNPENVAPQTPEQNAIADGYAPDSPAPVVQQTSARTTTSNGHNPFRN


Target: T1, TolC with a hexahistidine-tag at the …
Assay: cross-linking
Details: partners not purified

Row | Binder | crosslinking to TolC, percent of that of wild-type HlyD
1 | HlyD-R186A tagged with c-Myc at the C-terminus (natural protein, also called HlyD-R186A-C-myc) MKTWLMGFSEFLLRYKLVWSETWKIRKQLDTPVREKDENEFLPAHLELIETPVSRRPRLVAYFIMGFLVIAFILSVLGQVEIVATANGKLTLSGRSKEIKPIENSIVKEIIVKEGESVRKGDVLLKLTALGAEADTLKTQSSLLQARLEQIRYQILSRSIELNKLPELKLPDEPYFQNVSEEEVLALTSLIKEQFSTWQNQKYQKELNLDKKRAERLTILARINRYENVSRVEKSRLDDFRSLLHKQAIAKHAVLEQENKYVEAANELRVYKSQLEQIESEILSAKEEYQLVTQLFKNEILDKLRQTTDSIELLTLELEKNEERQQASVIRAPVSGKVQQLKVHTEGGVVTTAETLMVIVPEDDTLEVTALVQNKDIGFINVGQNAIIKVEAFPYTRYGYLVGKVKNINLDAIEDQKLGLVFNVIVSVEENDLSTGNKHIPLSSGMAVTAEIKTGMRSVISYLLSPLEESVTESLHER | 10 % of wild-type HlyD
2 | HlyD-T197A tagged with c-Myc at the C-terminus (natural protein, also called HlyD-T197A-C-myc) MKTWLMGFSEFLLRYKLVWSETWKIRKQLDTPVREKDENEFLPAHLELIETPVSRRPRLVAYFIMGFLVIAFILSVLGQVEIVATANGKLTLSGRSKEIKPIENSIVKEIIVKEGESVRKGDVLLKLTALGAEADTLKTQSSLLQARLEQIRYQILSRSIELNKLPELKLPDEPYFQNVSEEEVLRLTSLIKEQFSAWQNQKYQKELNLDKKRAERLTILARINRYENVSRVEKSRLDDFRSLLHKQAIAKHAVLEQENKYVEAANELRVYKSQLEQIESEILSAKEEYQLVTQLFKNEILDKLRQTTDSIELLTLELEKNEERQQASVIRAPVSGKVQQLKVHTEGGVVTTAETLMVIVPEDDTLEVTALVQNKDIGFINVGQNAIIKVEAFPYTRYGYLVGKVKNINLDAIEDQKLGLVFNVIVSVEENDLSTGNKHIPLSSGMAVTAEIKTGMRSVISYLLSPLEESVTESLHER | 48 % of wild-type HlyD
